Data reported in PMC8776730 (Nature Communications, 2022).

Assays:
[1] = mouse, in vivo, iv, 16 mg/kg
[2] = test system: orthotopic pancreatic tumor (MIA PaCa-2); assay: Ex vivo organ biodistribution, orthotopic pancreatic tumor model; conditions: orthotopic tumor mice, i.v. 16 mg/kg, 12 h
Procedure: (§1) To evaluate the imaging property of BIVA probe, the orthotopic pancreatic tumor mice model was built. After intravenous injected M1 and M2 molecules with a dose of 16 mg/kg for 12 h, the mice were sacrificed. […] Then, all the important organs were dissected for ex vivo imaging. […] Upon the individual differences, we validated 6 mice under surgery to induce orthotopic tumor in pancreatic head. […] As known, the FAP-α was a membrane located protein, overexpressed on tumor associate fibroblast cell and pancreatic cell surface.

[3] = test system: orthotopic pancreatic tumor (MIA PaCa-2); assay: Signal in small orthotopic tumor area versus healthy spleen area; format: in vivo; conditions: orthotopic pancreatic tumor mice, i.v. 16 mg/kg, 12 h
Procedure: as §1

MIA PaCa-2 cells = assay: Cytotoxicity, CCK-8 assay; format: cell-based; conditions: CCK-8, 24 h, at high concentration of 300 μM
Procedure: The cytotoxicity of M1 and M2 was evaluated using CCK-8 assay in MIA PaCa-2 cells. Cells were seeded into 96-well plates at a density of 5 × 10^4 cells per well and placed in an incubator for 14 h. Subsequently, the sample was diluted into a series of different concentrations (0, 50, 100, 150, 200, 250, 300, and 350 μM) and incubated with cells for 24 h. After that, 10 μL of CCK-8 solution was added to each well and incubated for 2 h. The absorbance of blank wells (Ab), sample wells (As) and control wells (Ac) were measured with a microplate reader at a test wavelength of 450 nm and a reference wavelength of 690 nm. The cell viability rate (%) is equal to (As -Ab) / (Ac -Ab) ×100%. All experiments were repeated in triplicate.
Supplementary Fig. 21∣ Cellviability assay of Miapaca-2 cells treated with a series concentration of M1 and M2 for 24 h.
Tested by Cell Counting Kit-8 (Beyotime, C0039) The mean of results of six parallel experiments isshown and data were
expressed as mean ± SD (n=6).
(1 picture or pasted object on this page, not shown here)

mPEG-GPAKLVFFGC(IR783)GRGD [M1]
blood circulation half-life (t1/2) [1]: 1.83 ± 0.05 h
signal accumulation in tumor relative to M2 [2]: twice
Average radiant efficiency, spleen ([2]; average of n = 3): 203.333 P/sec
fluorescence signal on tumor relative to surrounding spleen tissue (signal-to-background) [3]: over 9 folds
cytotoxicity (MIA PaCa-2 cells): no obvious cytotoxicity
